# Experimental data published in article PMC5036196, “Structural and histone binding ability characterization of the ARB2 domain of a histone deacetylase Hda1 from Saccharomyces cerevisiae” (Scientific Reports, 2016).
# Where a chain is given by its changes, count along the chain named.
# B1: ARB2 domain of Hda1 (Hda1^457–698) (domain or fragment, Saccharomyces cerevisiae, UniProt P53973 457-698, looked up)
# chain: LQKAIRQQQQHYLSDEFNFVTLPLVSMDLPDNTVLCTPNISESNTIIIVVHDTSDIWAKRNVISGTIDLSSSVIIDNSLDFIKWGLDRKYGIIDVNIPLTLFEPDNYSGMITSQEVLIYLWDNYIKYFPSVAKIAFIGIGDSYSGIVHLLGHRDTRAVTKTVINFLGDKQLKPLVPLVDETLSEWYFKNSLIFSNNSHQCWKENESRKPRKKFGRVLRCDTDGLNNIIEERFEEATDFILDS
# notes: Hda1 (histone deacetylase), S. cerevisiae, C-terminal ARB2 domain, residues 457-698; Homodimer in the crystal (symmetry-related molecules) and by size-exclusion chromatography; A selenomethionine derivative was used for phasing only; also called Native-Hda1^457–698; wild-type ARB2 domain; source: E. coli BL21 (DE3), purified (Ni-NTA, HiTrap Q FF, Superdex 200)
# B2: ARB2-M3 (residues Val481, Ser482, Met483 and Asp484 mutated to Ala) (domain or fragment, Saccharomyces cerevisiae, UniProt P53973 457-698, looked up)
# chain: B1 chain with V25A, S26A, M27A, D28A
# notes: Hda1, S. cerevisiae, ARB2 domain, residues 457-698, with four substitutions around the groove; source: E. coli BL21 (DE3), purified (Ni-NTA, HiTrap Q FF, Superdex 200)
# B3: ARB2-M1 (residues Gln463, His467 and Asp471 mutated to Ala) (domain or fragment, Saccharomyces cerevisiae, UniProt P53973 457-698, looked up)
# chain: B1 chain with Q7A, H11A, D15A
# notes: Hda1, S. cerevisiae, ARB2 domain, residues 457-698, with three substitutions around the groove; source: E. coli BL21 (DE3), purified (Ni-NTA, HiTrap Q FF, Superdex 200)
# B4: ARB2-M2 (residues Tyr468 and Glu472 mutated to Ala) (domain or fragment, Saccharomyces cerevisiae, UniProt P53973 457-698, looked up)
# chain: B1 chain with Y12A, E16A
# notes: Hda1, S. cerevisiae, ARB2 domain, residues 457-698, with two substitutions around the groove; source: E. coli BL21 (DE3), purified (Ni-NTA, HiTrap Q FF, Superdex 200)
# Target: the molecule itself
# Assay: SEC; Superdex 200 10/300 GL, 0.5 ml/min, 25 mM Tris-HCl pH 7.5, 200 mM NaCl; apparent molecular mass against standard proteins
# Conditions: not given
row,Binder,stoichiometry N
1,B1,2

# Target: yeast histone H3-H4 tetramer (Saccharomyces cerevisiae, UniProt P61830 1-136; P02309 1-103)
# Assay: ITC; ITC200 at 20 °C; 0.5 mM ARB2 or mutant in the injector, 0.2 mM H2A/B or 0.25 mM H3/4 in the sample cell; 25 mM Tris-HCl pH 7.5, 200 mM NaCl; single-site fitting model
# Conditions: both partners purified
Binder,Kd [µM],dH [kcal/mol],stoichiometry N
B1,3.24 ± 0.49,-33.9,1.52
B2,8.19 ± 0.72,-20.2,0.9
B3,9.84 ± 1.48,-7.63,0.78
B4,6.93 ± 1.24,-24.1,1.1
